In data set [1] the test system is T1, CC(C)(O)C(O)C(=O)O.
T1 construct: hexa-histidine tag at the N-terminal, pET-28a
Put plainly: Michaelis-Menten kinetics (Km), DNPH assay. The following applies: [4Fe-4S] cluster, Mg2+ active site. The data set is classed as biochemical, Staphylococcus aureus.

Data set [2] deals with T1, CC(C)(O)C(O)C(=O)O. Put plainly: Michaelis-Menten kinetics (Km), DNPH assay. It is filed as biochemical, Campylobacter jejuni. Conditions: [4Fe-4S] cluster, Mg2+ active site.

Broadly, the Km is the concentration of substrate that gives half-maximal velocity. The kcat is the number of substrate molecules converted per active site and unit of time at saturation. The kcat/Km is the second-order rate constant that governs catalysis at low substrate concentration. With “SaDHAD (dihydroxy-acid dehydratase) (Staphylococcus aureus subsp. aureus NCTC 8325)”, in the data set on CC(C)(O)C(O)C(=O)O [1], the Km was found to be 1100 µM, the kcat was found to be 2.1 s⁻¹ and the specificity constant (kcat/Km) was found to be 1910 M⁻¹ s⁻¹.

Turning to “CjDHAD (dihydroxy-acid dehydratase) (Campylobacter jejuni subsp. jejuni NCTC 11168 = ATCC 700819)”, in the data set on CC(C)(O)C(O)C(=O)O [2], the Km was determined as 820 µM, the kcat was 6.5 s⁻¹ and the specificity constant (kcat/Km) turned out to be 7930 M⁻¹ s⁻¹.

Values taken from publication PMC9543379, “Dihydroxy‐Acid Dehydratases From Pathogenic Bacteria: Emerging Drug Targets to Combat Antibiotic Resistance” (Chemistry (Weinheim an Der Bergstrasse, Germany), 2022).
